According to patent US20210115102:

Columns and labels:
[1] = test system: ALU30-9
[2] = test system: ALU30-6
[3] = test system: ALU30-17
[4] = test system: ALU30-1
[5] = test system: ALU30-16
[6] = test system: CTSL1_2 8-mer FRET substrate Mca-ALFFSSPPK-Dnp
[7] = test system: ALU30-10
[8] = test system: ALU30-7
[9] = test system: ALU30-12
[10] = test system: ALU30-11
[11] = test system: ALU30-8
[12] = test system: ALU30-14
[13] = test system: ALU30-15
[14] = test system: CTSL1_1 FRET substrate (ALFKSSFP)
[15] = test system: ALU30-5
ALU30-5, sequence (chain, as listed by the source): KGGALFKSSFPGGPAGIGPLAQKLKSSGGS

[16] = test system: ALU30-18
ALU30-18, sequence (chain, as listed by the source): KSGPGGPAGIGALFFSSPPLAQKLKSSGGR

[17] = test system: ALU30-13
ALU30-13, sequence (chain, as listed by the source): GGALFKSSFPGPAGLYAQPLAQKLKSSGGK

[18] = test system: CTSL1_2 9-mer FRET substrate Mca-ALFFSSPPSK-Dnp

Cathepsin L (CTSL1), recombinant human, sequence (chain, as listed by the source): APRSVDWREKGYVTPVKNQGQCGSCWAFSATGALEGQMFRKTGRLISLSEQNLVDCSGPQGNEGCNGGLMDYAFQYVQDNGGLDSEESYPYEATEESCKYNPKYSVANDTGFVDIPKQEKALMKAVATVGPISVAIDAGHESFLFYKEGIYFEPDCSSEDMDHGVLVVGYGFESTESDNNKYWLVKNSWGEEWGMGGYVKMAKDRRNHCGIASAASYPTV
ALU30-15, sequence (chain, as listed by the source): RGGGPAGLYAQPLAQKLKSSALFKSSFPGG
ALU30-6, sequence (chain, as listed by the source): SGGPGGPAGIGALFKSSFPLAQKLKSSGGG
ALU30-8, sequence (chain, as listed by the source): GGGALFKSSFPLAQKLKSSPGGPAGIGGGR
ALU30-10, sequence (chain, as listed by the source): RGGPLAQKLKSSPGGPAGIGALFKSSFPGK
ALU30-9, sequence (chain, as listed by the source): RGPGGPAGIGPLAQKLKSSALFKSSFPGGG
ALU30-12, sequence (chain, as listed by the source): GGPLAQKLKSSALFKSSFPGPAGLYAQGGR
ALU30-17, sequence (chain, as listed by the source): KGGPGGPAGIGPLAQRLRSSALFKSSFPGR
ALU30-11, sequence (chain, as listed by the source): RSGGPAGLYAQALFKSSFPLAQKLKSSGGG
ALU30-7, sequence (chain, as listed by the source): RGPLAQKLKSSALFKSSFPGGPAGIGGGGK
ALU30-1, sequence (chain, as listed by the source): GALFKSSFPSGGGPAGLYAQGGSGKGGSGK
ALU30-16, sequence (chain, as listed by the source): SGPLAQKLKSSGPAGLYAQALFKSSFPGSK
ALU30-14, sequence (chain, as listed by the source): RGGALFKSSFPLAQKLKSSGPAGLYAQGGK

Substance: Cathepsin L (CTSL1), recombinant human
- 30-mer substrate degradation (MSP-MS) [1]: The most efficiently cleaved peptides were those containing the FAPa_1, CTSL1_1 and ADAM17_2 motifs, in multiple orders.
- 30-mer cleavage (substrate disappearance and product formation) [2]: Both peptides showed rapid disappearance of substrate (squares) and product formation from cleavage at the target scissile bond
- 30-mer substrate degradation (MSP-MS) [2]: The most efficiently cleaved peptides were those containing the FAPa_1, CTSL1_1 and ADAM17_2 motifs, in multiple orders.
- 30-mer substrate degradation (MSP-MS) [3]: CTSL1 treatment of the 30-mer peptide library produced cleavages in all peptides bearing a CTSL1_1 or CTSL1_2 motif
- 30-mer substrate degradation (MSP-MS) [4]: CTSL1 treatment of the 30-mer peptide library produced cleavages in all peptides bearing a CTSL1_1 or CTSL1_2 motif
- 30-mer substrate degradation (MSP-MS) [5]: Peptides bearing the MMP14_1 motif with CTSL1_1 and ADAM17_2 were slightly lower efficiency.
- FRET substrate cleavage [6]: the new CTSL1_2 motif was not cleaved in the context of an 8-mer FRET peptide
- 30-mer substrate degradation (MSP-MS) [7]: The most efficiently cleaved peptides were those containing the FAPa_1, CTSL1_1 and ADAM17_2 motifs, in multiple orders.
- 30-mer substrate degradation (MSP-MS) [8]: The most efficiently cleaved peptides were those containing the FAPa_1, CTSL1_1 and ADAM17_2 motifs, in multiple orders.
- 30-mer substrate degradation (MSP-MS) [9]: Peptides bearing the MMP14_1 motif with CTSL1_1 and ADAM17_2 were slightly lower efficiency.
- 30-mer substrate degradation (MSP-MS) [10]: Peptides bearing the MMP14_1 motif with CTSL1_1 and ADAM17_2 were slightly lower efficiency.
- 30-mer substrate degradation (MSP-MS) [11]: The most efficiently cleaved peptides were those containing the FAPa_1, CTSL1_1 and ADAM17_2 motifs, in multiple orders.
- 30-mer substrate degradation (MSP-MS) [12]: Peptides bearing the MMP14_1 motif with CTSL1_1 and ADAM17_2 were slightly lower efficiency.
- 30-mer substrate degradation (MSP-MS) [13]: Peptides bearing the MMP14_1 motif with CTSL1_1 and ADAM17_2 were slightly lower efficiency.
- cleavage efficiency of 30-mer library peptides [13]: lower CTSL1 activity
- FRET substrate cleavage [14]: CTSL1 cleaves the FRET substrate bearing the CTSL1_1 motif highly efficiently
- 30-mer substrate degradation (MSP-MS) [15]: The most efficiently cleaved peptides were those containing the FAPa_1, CTSL1_1 and ADAM17_2 motifs, in multiple orders.
- 30-mer cleavage (substrate disappearance and product formation) [16]: Both peptides showed rapid disappearance of substrate (squares) and product formation from cleavage at the target scissile bond
- 30-mer substrate degradation (MSP-MS) [16]: CTSL1 treatment of the 30-mer peptide library produced cleavages in all peptides bearing a CTSL1_1 or CTSL1_2 motif
- 30-mer substrate degradation (MSP-MS) [17]: Peptides bearing the MMP14_1 motif with CTSL1_1 and ADAM17_2 were slightly lower efficiency.
- FRET substrate cleavage, catalytic efficiency [18]: This 9-mer FRET substrate bearing the CTSL1_2 motif produced comparable catalytic efficiency to the CTSL1_1 motif
